Experimental findings from PMC8486843, “SPOP mutation induces replication over-firing by impairing Geminin ubiquitination and triggers replication catastrophe upon ATR inhibition” (Nature Communications, 2021) are described below.

Test [1] addresses T1, SPOP MATH (D140G mutant) (human, UniProt O43791 28-166, D140G).
T1 construct: SPOP, human, MATH domain, residues 28-166, D140G; Purified 'using the same protocol' as the 15N-labeled MATH domain 28-166; also called SPOP-MATH domain (D140G mutant)
The test is described as follows: crystal structure; 1.1 mM SPOP MATH D140G with 5.5 mM Geminin peptide; sitting drop, 22 °C; 3.4 Å. Particulars: both partners purified.

Test [2] has as its target T2, 15N-labeled SPOP MATH domain (amino acids 28-166) (human, UniProt O43791 28-166, 15N-labeled).
T2 construct: SPOP, human, MATH domain, residues 28-166; Hexahistidine tag cleaved with PreScission protease
Kind of test: NMR titration; 1H-15N HSQC of 0.2 mM 15N-labeled SPOP MATH titrated with up to 3-fold molar excess of unlabeled peptide; 298 K; phosphate buffer, 50 mM NaCl, 5 mM DTT, pH 6.0. Particulars: both partners purified.

T1 sequence (O43791 28-166 D140G): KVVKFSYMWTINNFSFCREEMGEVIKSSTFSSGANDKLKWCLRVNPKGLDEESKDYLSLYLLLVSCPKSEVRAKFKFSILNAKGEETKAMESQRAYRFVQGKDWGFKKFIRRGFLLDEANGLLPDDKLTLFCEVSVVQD
T2 sequence (O43791 28-166): as the sequence (O43791 28-166 D140G) above, with G113D counted along it

B1: Geminin WT SBC-containing peptide (amino acids 195-209) (peptide)
peptide: AEGTVSSSTDAKPCI
notes: Geminin, human, residues 195-209; also called Geminin peptide; Geminin wild-type SBC peptide; source: synthetic peptide
As to B1, the binding result in test [1] and in test [2] was “binds” in each case.
